# Results reported in patent publication US20220356229A1 (published 2022).
# Where two headings read alike, the source gives them in different places.
# B1: anti-SARS-CoV-2 antibody 1091 (antibody, V domains shown)
# VH: QVQLVESGGGVVQPGRSLRLSCAASGFTFSNYAMHWVRQAPGKGLEWVAVISYDGSNKYYADSVKGRFTISRDNSKNTLYLQMNSLRAEDTAVYYCARDKLLWFGELLFDMDVWGKGTTVTVSS
# VL: DIQMTQSPSSLSASVGDRVTITCRASQGISNYLAWFQQKPGKAPKSLIYDASSLQSGVPSKFSGSGSGTDFTLTISSLQPEDFATYYCQQYNSYPPSFGPGTKVDIK
# B2: anti-SARS-CoV-2 antibody 1015 (antibody, V domains shown)
# VH: EVQLVESGGGLVQPGGSLRLSCAASGFTFSSYWMHWVRQAPGKGLVWVSHINSDGSSTSYADSVKGRFTISRDNAKNTLYLQMNSLRAEDTAVYYCARGLRYFDLDVWGQGTTVTVSS
# VL: QSVLTQPPSVSEAPRQRVTISCSGSSSNIGNNAVNWYQQLPGKAPKLLIFYDDLLPSGVSDRFSGSKSGTSASLAISGLQSEDEADYYCAAWDDSLNGGVFGGGTKLTVLG
# B3: anti-SARS-CoV-2 antibody 1000 (antibody, V domains shown)
# VH: EVQLVQSGAEVKKPGESLKISCKASGYSFTIYWIGWVRQMPGKGLEWMGVIYPGDSDTRYSPSFQGQVTISADKSISTAYLQWSSLKASDTAMYYCALGYHSGSYPFNWFDPWGQGTLVTVSS
# VL: EIVMTQSPATLSVSPGERATLSCRASQSVSSNLAWYQQKPGQTPRLLIYGASTRATGIPARFSGSGSGTEFTLTISSLQSEDFAVYYCQQYDNLLTFGGGTKVEIK
# B4: anti-SARS-CoV-2 antibody 1081 (antibody, V domains shown)
# VH: QITLKESGPTLVKPTQTLTLTCTFSGFSLSTSRVGVGWIRQPPGKALEWLALIYWNDGKLYSPSLKSRLTITKDTSKNQVVLTLTNMDSVDTATYFCARGQTGTPLYDAFDFWGRGTMVTVSS
# VL: SYVLTQPPSVSVAPGKTAGITCGGDNFETKSVSWYQHKPGQAPVLVVYGNANRPSGIPERFSASKSGNTATLTISRVEAGDEADYYCQVWDSRSFHYVVFGGGTKLTVL
# B5: antibody 474 (antibody, V domains shown)
# VH: EVQLVESGGGLVQPGGSLRLSCAASGFTFSSYWMHWVRQAPGKGLVWVSRINSDGSSTSYADSVKGRFTISRDNAKNTLYRQMNSLRAEDTAVYYCALGPLDIVGSYYYYGMDVWGQGTTVTVSS
# VL: NFMLTQPHSVSESPGKTVTISCTGSSGSIASNYVQWYQQRPGSAPTTVIYEDNQRPSGVPDRFSGSIDSSSNSASLTISGLKTEDEADYYCQSYDSSNQDVVFGGGTKLTVL
# B6: anti-SARS-CoV-2 antibody 555 (antibody, V domains shown)
# VH: QVQLVQSGAEVKKPGSSVKVSCKASGGTFSNYAISWVRQAPGQGLEWMGRIIPILGIANYAQKFQGRVTITADKSTSTAYMELSSLRSEDTAVYYCARGYYEARHYYYYYAMDVWGQGTAVTVSS
# VL: not shown
# B7: antibody 377 (antibody, V domains shown)
# VH: EVQLVESGGGLVKPGGSLRLSCATSGFTFRTYSMNWVRQAPGKGLEWVSSITTSRNYIYYADSVRGRFTISGDNANNSLYLQMNSLRAEDTAVYYCARVRFVRDTRKPYYFDFWGQGTLVTVSS
# VL: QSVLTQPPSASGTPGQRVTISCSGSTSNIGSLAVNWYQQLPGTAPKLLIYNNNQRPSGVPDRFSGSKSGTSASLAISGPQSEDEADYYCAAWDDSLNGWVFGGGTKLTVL
# B8: anti-SARS-CoV-2 antibody 1075 (antibody, V domains shown)
# VH: QVQLVQSGAEVKKPGASVKVSCKVSGYTLIELSMHWVRQAPGKGLEWMGGFDPEDGETIYAQKFQGRVTMTEDTSTDTAYMELSSLRSEDTAVYYCATEWAYYGSGSYLGYWGQGTLVTVSS
# VL: EIVMTQSPATLSVSPGERATLSCRASQSVSSNLAWFQQKPGQAPRLLIYGASTRVTVIPARFSGSGSGTEFTLTISSLQSEDFAVYYCQQYNNWPRTFGQGTKVEIKR
# B9: anti-SARS-CoV-2 antibody 307 (antibody, V domains shown)
# VH: QVQLVESGGGVVQPGRSLRLSCAASGFTFSSYGMHWVRQAPGKGLEWVAVIWYDGSNKYYADSVKGRFTISRDNSKNTLYLQMNSLRAEDTAVYYCAKGYTWDYYYYGMDVWGQGTTVTVSS
# VL: not shown
# B10: antibody 576 (antibody, V domains shown)
# VH: QVQLVESGGGVVQPGRSLRLSCAASGFTFSSYAMHWVRQAPGKGLEWVAVISYDGSNKYYADSVKGRFTISRDNSKNTLYLQMNSLRAEDTAVYYCAKAGGGSYYRGFDYWGQGTLVTVSS
# VL: DIQLTQSPSFLSASVGDRVTITCRASQGISSYLAWYQQKPGKAPKLLIYAASTLQSGVPSRFSGSGSGTEFTLTISSLQPEDFATYYCQQLNSYPTFGPGTKVDIK
# B11: anti-SARS-CoV-2 antibody 1098 (antibody, V domains shown)
# VH: EVQLLESGGGLVQPGGSLRLSCAASGFTFNSYAMSWVRQAPGKGLEWVSAISGSGGSTYYADSVKGRFSISRDNAKNTLFLQMNSLRAEDTAVYYCARSGGNFDYWGQGTLVTVSL
# VL: SYELTQPPSVSVSPGQTARITCSGDVLAKRYVYWYQQKPGQAPVLVIYRDSERPSGIPERFSGSSSGTTVTLTISGVQAVDEADYYCQSADSSGTLYVFGTGTKVTVL
# B12: anti-SARS-CoV-2 antibody 923 (antibody, V domains shown)
# VH: EVQLVESGGGVVRPGGSLRLSCAASGFIFDDYDMTWVRQAPGKGLEWVSGISWNGGNTGYADSVKGRFTISRDNAKNSLYLQMNSLRAEDTALYHCAVIMSPIPRYSGYDWAGGAFDIWGQGTMVTVSS
# VL: SSELTQDPAVSVALGQTVRITCQGDSLRSYYASWYQQKPGQVPILVIYDKNNRPSGIPDRFSGSSSGNTASLTITGAQAEDEADYYCNSRDSSGNAVVFGGGTKLTVLG
# B13: anti-SARS-CoV-2 antibody 1118 (antibody, V domains shown)
# VH: QVQLVESGGGVVQPGRSLRLSCAASGFTFSTYAMHWVRQAPGKGLEWVAVISYDGSNKYYSDSVKGRFTISRDNSKNTLYLQMNSLRAEDTAVYYCARAHTSGWPLGDYFDYWGQGTLVTVSS
# VL: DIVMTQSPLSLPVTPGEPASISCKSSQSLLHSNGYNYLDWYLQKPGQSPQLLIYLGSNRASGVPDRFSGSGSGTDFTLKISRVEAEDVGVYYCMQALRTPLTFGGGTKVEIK
# B14: anti-SARS-CoV-2 antibody 1037 (antibody, V domains shown)
# VH: QITLKESGPTLVKPTQTLTLTCTFSGFSLSTSGVGVGWIRQPPGKALEWLALIYWDDDKRYSPSLKSRLTITKDTSKNQVVLTMTNMDPVDTATYYCAHHTITRINDYWGQGTLVTVSS
# VL: QSALTQPASVSGSPGQSITISCTATSSDVGAYNYVSWYQQHPGKAPKLMIYDVSKRPSGVSNRFSGSKSGNTASLTISGLQAEDEADYYCSSYTSSSTVFGGGTKLTVLG
# B15: antibody 577 (antibody, V domains shown)
# VH: QLPLQESGPGLVKPSETLSLTCTVSGGSISSSSYYWGWIRQPPGKGLEWIGSIYYSGSTFYNPSLKSRVTISGDTSKNQFSLKVTSVTAADTAVYYCARGSGSSGWYAFDIWGQGTMVTVSS
# VL: QSALTQPASVSGSPGQSITISCTGTSSDFGGYNYVSWYQQHPDKAPKLMIYDVSNRPSGVSNRFSGSKSGNTASLTISGLQAEDEADYYCSSYTTSSTWVFGGGTKLTVL
# B16: anti-SARS-CoV-2 antibody 278 (antibody, V domains shown)
# VH: QVQLVQSGAEVKKPGASVKVSCKASGYTFTSYYMHWVRQAPGQGLEWMGIINPSGGSTSYAQKFQGRVTMTRDTSTSTVYMELSSLRSEDTAVYYCARDHSNADPYYDFWSGYYTRTYYYGMDVWGQGTTVTVSS
# VL: not shown
# Columns and labels:
# [1] = biological target: SARS-CoV-2 Spike protein (wild type) (SARS-CoV-2, UniProt P0DTC2 14-1208); experiment: SPR (Carterra LSA), mAb coupled to HC30M chip, Spike titrated; Example 4 methods
# [2] = biological target: Spike protein of authentic SARS-CoV-2/MT020880.1 (live virus) (SARS-CoV-2, UniProt P0DTC2 14-1273); experiment: cell-based or functional assay
# [3] = biological target: SARS-CoV-2 Spike protein, wild type, full length (SARS-CoV-2, UniProt P0DTC2 14-1208)
# [4] = biological target: Spike protein of SARS-CoV-2 hCoV-19/Canada/ON_ON-VIDO-01-2/202 (live virus) (SARS-CoV-2, UniProt P0DTC2 14-1273); experiment: cell-based or functional assay
# [5] = biological target: SARS-CoV-2 Spike (S) protein, wild type, full length (SARS-CoV-2, UniProt P0DTC2 14-1273)
# [6] = biological target: SARS-CoV-2 Spike protein (wild type) (SARS-CoV-2, UniProt P0DTC2 14-1208)
# [7] = biological target: SARS-CoV-2 full length Spike protein, wild type, expressed on the surface of transiently transfected CHO cells (SARS-CoV-2, UniProt P0DTC2 14-1273)
# [8] = biological target: SARS-CoV-2 Spike protein on pseudotyped lentivirus (SARS-CoV-2, UniProt P0DTC2 14-1273); experiment: cell-based or functional assay
binder,measurement,setting,value
B1,Kd,[1],54 pM
B2,"IC50 (ng/mL), immunofluorescence neutralization assay",[2],260 ng/mL
B3,Kd,[1],92 pM
B4,Kd,[1],93 pM
B5,binding signal (fold over isotype control),[3],1.47 fold over isotype
B6,"IC50 (ng/mL), immunofluorescence neutralization assay",[2],49.2 ng/mL
same,"IC50 (µg/mL), plaque reduction neutralization test",[4],0.0083 µg/mL
B7,fold over isotype (median fluorescence intensity),[5],0.78 fold over isotype
B8,"IC50 (ng/mL), immunofluorescence neutralization assay",[2],89.6 ng/mL
same,"IC50 (µg/mL), plaque reduction neutralization test",[4],0.409 µg/mL
B9,kon,[6],101000 M⁻¹ s⁻¹
B10,"median fluorescence intensity, fold over isotype control",[7],8.75 fold over isotype
B11,Kd,[1],173 pM
same,Pseudo-neutralization IC50,[8],0.087 µg/mL
B12,"IC50 (ng/mL), immunofluorescence neutralization assay",[2],121 ng/mL
same,"IC50 (µg/mL), plaque reduction neutralization test",[4],0.01 µg/mL
B13,Kd,[1],223 pM
same,Pseudo-neutralization IC50,[8],0.026 µg/mL
B14,"IC50 (ng/mL), immunofluorescence neutralization assay",[2],32.8 ng/mL
same,"IC50 (µg/mL), plaque reduction neutralization test",[4],0.0096 µg/mL
B15,"median fluorescence intensity, fold over isotype control",[7],1.14 fold over isotype
B16,Kd,[6],4280 pM
